This note sets out measurements from paper doi:10.1101/2023.07.20.549453 (bioRxiv, 2023).

The target of one assay is T1, Human Numb full-length (human, UniProt P49757 1-651).
T1 sequence (looked up): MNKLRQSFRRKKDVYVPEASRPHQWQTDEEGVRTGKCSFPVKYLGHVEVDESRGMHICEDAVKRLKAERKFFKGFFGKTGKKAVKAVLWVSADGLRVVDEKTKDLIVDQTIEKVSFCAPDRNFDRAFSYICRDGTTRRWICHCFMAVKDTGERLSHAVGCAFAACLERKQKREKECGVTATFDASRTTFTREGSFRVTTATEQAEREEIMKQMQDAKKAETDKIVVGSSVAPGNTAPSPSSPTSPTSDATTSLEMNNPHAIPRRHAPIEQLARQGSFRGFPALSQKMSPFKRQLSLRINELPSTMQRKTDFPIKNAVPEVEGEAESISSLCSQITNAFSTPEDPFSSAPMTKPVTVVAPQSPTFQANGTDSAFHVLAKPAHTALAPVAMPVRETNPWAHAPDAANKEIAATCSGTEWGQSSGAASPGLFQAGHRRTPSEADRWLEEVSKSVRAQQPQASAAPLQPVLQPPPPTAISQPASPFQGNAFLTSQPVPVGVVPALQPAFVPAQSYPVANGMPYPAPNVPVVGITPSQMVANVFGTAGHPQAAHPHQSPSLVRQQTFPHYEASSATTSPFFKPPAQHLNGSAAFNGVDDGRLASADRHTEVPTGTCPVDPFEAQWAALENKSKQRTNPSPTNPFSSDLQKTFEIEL
Nature of the assay: SPR. A general note: SPR reads the build-up and loss of mass on a sensor chip optically.

The target of assay [1] is Human Mdm2 (residues 119-438) (human, UniProt Q00987-11 119-438). Nature of the assay: SPR.
Chain of Human Mdm2 (residues 119-438) (Q00987 113-432): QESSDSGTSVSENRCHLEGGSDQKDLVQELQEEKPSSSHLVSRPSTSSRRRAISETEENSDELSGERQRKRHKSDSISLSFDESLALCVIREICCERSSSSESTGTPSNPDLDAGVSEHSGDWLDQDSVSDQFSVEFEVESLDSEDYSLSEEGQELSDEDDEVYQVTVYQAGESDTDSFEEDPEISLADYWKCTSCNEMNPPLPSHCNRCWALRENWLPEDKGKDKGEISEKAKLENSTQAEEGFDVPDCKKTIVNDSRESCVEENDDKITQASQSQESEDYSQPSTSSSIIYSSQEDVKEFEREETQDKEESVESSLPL

B1: Human Notch1 intracellular domain (NICD) (residues 2280-2550) (domain or fragment, UniProt P46531 2280-2550, looked up)
chain: SGTSTVLGSSSGGALNFTVGGSTSLNGQCEWLSRLQSGMVPNQYNPLRGSVAPGPLSTQAPSLQHGMVGPLHSSLAASALSQMMSYQGLPSTRLATQPHLVQTQQVQPQNLQMQQQNLQPANIQQQQSLQPPPPPPQPHLGVSSAASGHLGRSFLSGEPSQADVQPLGPSSLAVHTILPQESPALPTSLPSSLVPPVTAAQFLTPPSQHSYSSPVDNTPSHQLQVPEHPFLTPSPESPDQWSSSSPHSNVSDWSEGVSSPPTSMQSQIARI
What is called Kd is the concentration at which binding is half-saturated. Lower therefore signals higher affinity. The molecule B1 displayed a Kd with Human Numb full-length of about 14.3 nM.

B2: Human Dlk2 extracellular domain (Dlk2EC, residues 1-306) (domain or fragment, UniProt Q6UY11 27-306, looked up)
chain: DDCSSHCDLAHGCCAPDGSCRCDPGWEGLHCERCVRMPGCQHGTCHQPWQCICHSGWAGKFCDKDEHICTTQSPCQNGGQCMYDGGGEYHCVCLPGFHGRDCERKAGPCEQAGSPCRNGGQCQDDQGFALNFTCRCLVGFVGARCEVNVDDCLMRPCANGATCLDGINRFSCLCPEGFAGRFCTINLDDCASRPCQRGARCRDRVHDFDCLCPSGYGGKTCELVLPVPDPPTTVDTPLGPTSAVVVPATGPAPHSAGAGLLRISVKEVVRRQEAGLGEPS
With B2, the Kd in the assay with Human Numb full-length was about 2.4 nM; in assay [1], about 3.5 nM.
